From article doi:10.1101/2024.06.05.597462 (bioRxiv, 2024)
Like-named read-outs stand apart in the source and are kept apart here.

Key:
Test in all cases: fluorescence correlation spectroscopy
Arc NTD-linker-SNAP = target: Arc NTD-linker-SNAP
[1] = target: the molecule itself
[2] = target: the molecule itself; remark: listed apart in the source

Molecule	stoichiometry N (Arc NTD-linker-SNAP)	stoichiometry N [1]	stoichiometry N [2]
Arc NTD-linker-SNAP (domain or fragment)	4	–	–
Arc-FL-C-EGFP (natural protein) MELDHMTTGGLHAYPAPRGGPAAKPNVILQIGKCRAEMLEHVRRTHRHLLTEVSKQVERELKGLHRSVGKLENNLDGYVPTGDSQRWKKSIKACLCRCQETIANLERWVKREMHVWREVFYRLERWADRLESMGGKYPVGSEPARHTVSVGVGGPEPYCQEADGYDYTVSPYAITPPPAAGELPEQESVGAQQYQSWVPGEDGQPSPGVDTQIFEDPREFLSHLEEYLRQVGGSEEYWLSQIQNHMNGPAKKWWEFKQGSVKNWVEFKKEFLQYSEGTLSREAIQRELDLPQKQGEPLDQFLWRKRDLYQTLYVDAEEEEIIQYVVGTLQPKFKRFLRHPLPKTLEQLIQRGMEVQDGLEQAAEPSVTPLPTEDETEALTPALTSESVASDRTQPE	–	4.3	627
